Source: article PMC4576200 (Viruses, 2015)

Molecular target: the molecule itself
Test: AUC

B1: gp5β-BC, solvent-exposed part of the β-helical domain of bacteriophage T4 gene product 5 (residues 483–575) (domain or fragment, UniProt P16009 483-575, looked up)
chain: RGDETKTVEGNGTILVKGNVTIIVEGNADITVKGDATTLVEGNQTNTVNGNLSWKVAGTVDWDVGGDWTEKMASMSSISSGQYTIDGSRIDIG
stoichiometry N: 3
